Reference: the supplement of paper PMC5998384

Legend:
HeLa Kyoto [1] = test: thermal stability score vs G1/S (z-score of summed log2 fold changes over temperatures); higher = more thermally stable than in G1/S
HeLa Kyoto [2] = test: solubility in G1/S (NP-40 vs SDS abundance) (log2 ratio); higher = more soluble; conditions: cell cycle stage: G1/S
HeLa Kyoto [3] = test: solubility change mitosis vs G1/S (difference of NP-40 vs SDS log2 ratios) (log2 ratio difference); higher = more soluble in mitosis
[4] = cell cycle stage: early G1 (4.5 h after nocodazole release)
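Throughout, for solubility change mitosis vs G1/S (difference of NP-40 vs SDS log2 ratios): synchronized HeLa Kyoto cells (double thymidine block for G1/S, nocodazole release for mitosis), protein amounts in NP-40 versus SDS lysates quantified by mass spectrometry, three biological replicates.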
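Throughout, for solubility in G1/S (NP-40 vs SDS abundance): HeLa Kyoto cells arrested at G1/S by double thymidine block, proteins quantified by TMT10plex mass spectrometry in mild NP-40 versus SDS extracts, three biological replicates.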
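Throughout, for thermal stability score vs G1/S (z-score of summed log2 fold changes over temperatures): synchronized HeLa Kyoto cells, proteins quantified by TMT10plex mass spectrometry, three biological replicates, mitosis taken 0.5 h after nocodazole release, G1/S directly after double thymidine block.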

| Sequence | thermal stability score (HeLa Kyoto [1]; [4]) | thermal stability score (HeLa Kyoto [1]; cell cycle stage: mitosis) | solubility in G1/S (log2) (HeLa Kyoto [2]) | solubility change mitosis (log2) (HeLa Kyoto [3]) |
| --- | --- | --- | --- | --- |
| MDRAPTEQNVKLSAEVEPFIPQKKSPDTFMIPMALPNDNGSVSGVEPTPIPSYLITCYPFVQENQSNRQFPLYNNDIRWQQPNPNPTGPYFAYPIISAQPPVSTEYTYYQLMPAPCAQVMGFYHPFPTPYSNTFQAANTVNAITTECTERPSQLGQVFPLSSHRSRNSNRGSVVPKQQLLQQHIKSKRPLVKNVATQKETNAAGPDSRSKIVLLVDASQQTDFPSDIANKSLSETTATMLWKSKGRRRRASHPTAESSSEQGASEADIDSDSGYCSPKHSNNQPAAGALRNPDSGTMNHVESSMCAGGVNWSNVTCQATQKKPWMEKNQTFSRGGRQTEQRNNSQVGFRCRGHSTSSERRQNLQKRPDNKHLSSSQSHRSDPNSESLYFEDEDGFQELNENGNAKDENIQQKLSSKVLDDLPENSPINIVQTPIPITTSVPKRAKSQKKKALAAALATAQEYSEISMEQKKLQEALSKAAGKKNKTPVQLDLGDMLAALEKQQQAMKARQITNTRPLSYTVVTAASFHTKDSTNRKPLTKSQPCLTSFNSVDIASSKAKKGKEKEIAKLKRPTALKKVILKEREEKKGRLTVDHNLLGSEEPTEMHLDFIDDLPQEIVSQEDTGLSMPSDTSLSPASQNSPYCMTPVSQGSPASSGIGSPMASSTITKIHSKRFREYCNQVLCKEIDECVTLLLQELVSFQERIYQKDPVRAKARRRLVMGLREVTKHMKLNKIKCVIISPNCEKIQSKGGLDEALYNVIAMAREQEIPFVFALGRKALGRCVNKLVPVSVVGIFNYFGAESLFNKLVELTEEARKAYKDMVAAMEQEQAEEALKNVKKVPHHMGHSRNPSAASAISFCSVISEPISEVNEKEYETNWRNMVETSDGLEASENEKEVSCKHSTSEKPSKLPFDTPPIGKQPSLVATGSTTSATSAGKSTASDKEEVKPDDLEWASQQSTETGSLDGSCRDLLNSSITSTTSTLVPGMLEEEEDEDEEEEEDYTHEPISVEVQLNSRIESWVSETQRTMETLQLGKTLNGSEEDNVEQSGEEEAEAPEVLEPGMDSEAWTADQQASPGQQKSSNCSSLNKEHSDSNYTTQTT [SECISBP2L] | 1.54 | 2.5 | -0.226 | 0.0796 |
| MFHCIPLWRCNRHVESIDKRHCSLVYVPEEIYRYARSLEELLLDANQLRELPEQFFQLVKLRKLGLSDNEIQRLPPEIANFMQLVELDVSRNEIPEIPESISFCKALQVADFSGNPLTRLPESFPELQNLTCLSVNDISLQSLPENIGNLYNLASLELRENLLTYLPDSLTQLRRLEELDLGNNEIYNLPESIGALLHLKDLWLDGNQLSELPQEIGNLKNLLCLDVSENRLERLPEEISGLTSLTDLVISQNLLETIPDGIGKLKKLSILKVDQNRLTQLPEAVGECESLTELVLTENQLLTLPKSIGKLKKLSNLNADRNKLVSLPKEIGGCCSLTVFCVRDNRLTRIPAEVSQATELHVLDVAGNRLLHLPLSLTALKLKALWLSDNQSQPLLTFQTDTDYTTGEKILTCVLLPQLPSEPTCQENLPRCGALENLVNDVSDEAWNERAVNRVSAIRFVEDEKDEEDNETRTLLRRATPHPGELKHMKKTVENLRNDMNAAKGLDSNKNEVNHAIDRVTTSV [LRRC1] | -0.136 | -0.881 | -0.0636 | -0.136 |
| MAGSYPEGAPAVLADKRQQFGSRFLRDPARVFHHNAWDNVEWSEEQAAAAERKVQENSIQRVCQEKQVDYEINAHKYWNDFYKIHENGFFKDRHWLFTEFPELAPSQNQNHLKDWFLENKSEVPECRNNEDGPGLIMEEQHKCSSKSLEHKTQTLPVEENVTQKISDLEICADEFPGSSATYRILEVGCGVGNTVFPILQTNNDPGLFVYCCDFSSTAIELVQTNSEYDPSRCFAFVHDLCDEEKSYPVPKGSLDIIILIFVLSAIVPDKMQKAINRLSRLLKPGGMMLLRDYGRYDMAQLRFKKGQCLSGNFYVRGDGTRVYFFTQEELDTLFTTAGLEKVQNLVDRRLQVNRGKQLTMYRVWIQCKYCKPLLSSTS [METTL2A] | 0.497 | 0.608 | 0.185 | 0.0978 |
| MKGFKLSCTASNSNRSTPACSPILRKRSRSPTPQNQDGDTMVEKGSDHSSDKSPSTPEQGVQRSCSSQSGRSGGKNSKKSQSWYNVLSPTYKQRNEDFRKLFKQLPDTERLIVDYSCALQRDILLQGRLYLSENWICFYSNIFRWETLLTVRLKDICSMTKEKTARLIPNAIQVCTDSEKHFFTSFGARDRTYMMMFRLWQNALLEKPLCPKELWHFVHQCYGNELGLTSDDEDYVPPDDDFNTMGYCEEIPVEENEVNDSSSKSSIETKPDASPQLPKKSITNSTLTSTGSSEAPVSFDGLPLEEEALEGDGSLEKELAIDNIMGEKIEMIAPVNSPSLDFNDNEDIPTELSDSSDTHDEGEVQAFYEDLSGRQYVNEVFNFSVDKLYDLLFTNSPFQRDFMEQRRFSDIIFHPWKKEENGNQSRVILYTITLTNPLAPKTATVRETQTMYKASQESECYVIDAEVLTHDVPYHDYFYTINRYTLTRVARNKSRLRVSTELRYRKQPWGLVKTFIEKNFWSGLEDYFRHLESELAKTESTYLAEMHRQSPKEKASKTTTVRRRKRPHAHLRVPHLEEVMSPVTTPTDEDVGHRIKHVAGSTQTRHIPEDTPNGFHLQSVSKLLLVISCVICFSLVLLVILNMMLFYKLWMLEYTTQTLTAWQGLRLQERLPQSQTEWAQLLESQQKYHDTELQKWREIIKSSVMLLDQMKDSLINLQNGIRSRDYTSESEEKRNRYH [GRAMD1B] | -0.0752 | -0.742 | -0.0228 | 0.151 |
| MTQPVPRLSVPAALALGSAALGAAFATGLFLGRRCPPWRGRREQCLLPPEDSRLWQYLLSRSMREHPALRSLRLLTLEQPQGDSMMTCEQAQLLANLARLIQAKKALDLGTFTGYSALALALALPADGRVVTCEVDAQPPELGRPLWRQAEAEHKIDLRLKPALETLDELLAAGEAGTFDVAVVDADKENCSAYYERCLQLLRPGGILAVLRVLWRGKVLQPPKGDVAAECVRNLNERIRRDVRVYISLLPLGDGLTLAFKI [COMTD1] | -0.487 | 0.44 | 0.16 | 0.00811 |
